Experimental data published in patent publication US8460669B2, “Compositions and methods for identifying response targets and treating flavivirus infection responses” (Academia Sinica, priority 2005, dated 2013).
“Also recorded” adds a separate entry of the source.

Assays:
Dengue virus [1] = assay: ELISA of receptor.Fc interaction with Dengue virus; assay type: binding; settings: for binding to DV pretreated with heat or dithiothreitol: 95° C. 5 min or DTT 0.1 M; for binding to DV pretreated with PNGaseF: PNGaseF 500 U; for interaction of receptor.Fc with Dengue virus (ELISA): receptor.Fc 1 μg, DV 5×10^6
Method: One μg of each receptor.Fc fusion protein was coated onto microtiter plates overnight at 4° C. DV (5×10^6 particles) of strain 16681 (a DEN2 strain) in binding buffer (1% BSA, 2 mM CaCl2, 2 mM MgCl2, 50 mM Tris-HCl pH 7.5, 150 mM NaCl) was then added to the plates and the plates were incubated for 2 hours. After washing non-bound virus, a biotinylated anti-DEN2 envelope protein antibody (Wu et al., J Virol, 2002. 76(8): p. 3596-604) was applied to bind to the virus for 1 hour. Diluted horseradish peroxidase-conjugated streptavidin was then added to the plates, followed by a 1 hour incubation. TMB substrate was then added and the plates were read using an ELISA reader at OD450 nm.
The microtiter plate assay was repeated in the presence of EDTA (10 mM) to chelate Ca^++ cations.
The microtiter plate assay was also repeated for DVLR1/CLEC5A.Fc fusion protein with DV particles (5×10^6) that had been 1) preincubated with 500 U of the glycosidase PNGaseF (New England Biolabs, Inc.) overnight at 37° C.; or 2) treated with dithiothreitol (DTTI) (0.1M); or 3) incubated at 95° C. for 5 minutes; or 4) UV irradiated for 5 minutes. The results are shown in FIG. 8D (asterisks indicate where the binding affinity of DVLR1/CLEC5A.Fc fusion protein is altered by modification of the virus relative to non-treated virus; ** p<0.01, *** p<0.001, Student's t test). […]

Dengue virus [2] = assay: Immunoprecipitation of Dengue virus with receptor.Fc; assay type: binding; settings: receptor.Fc 5 μg; DV 5×10^6; listed as DVLR1/CLEC5A.Fc
Method: The results are depicted in FIG. 8A (** indicates p<0.01, *** indicates p<0.001 (Student's t test)). […] Specifically, 5×10^6 Dengue virus particles were incubated with 5 μg of each protein, and then Protein A beads were added. The resulting immunocomplexes were washed, separated by SDS-PAGE, and transferred onto nitrocellulose membrane. The membrane was then probed with biotinylated anti-DEN2 envelope protein antibody and developed with horseradish peroxidase-conjugated streptavidin.
In FIG. 16b, complexes of DV (5×10^6 PFU) with receptor.Fc (5 μg) were immunoprecipitated and detected on westerns with mAb to DV envelope (E) protein. […] FIGS. 16d and 16e show sugar competition assays wherein both DC-SIGN (CLEC4L) and DVLR1/CLEC5A increase DV binding to human 293T cells (FIG. 16d), while addition of sugars inhibits biotinylated DV binding to DC-SIGN- (left panel) or DLVR1/CLEC5A- (right panel) transfected 293T cells in a dose-dependent manner as determined by flow cytometry (FIG. 16e). According to FIG. 16e, MFI represents mean fluorescence intensity. Units (U) for monosaccharide (mannose and fucose) and polysaccharide (mannan) are mM and mg/ml, respectively. […] Data are expressed as the mean±s.d. of three independent experiments. Two-tailed, Student's t-tests were performed. […]

[3] = Enzyme linked immunoassay of receptor.Fc fusions on immobilized GLPS-F3; assay type: binding, Ganoderma lucidum; settings: GLPS-F3 100 ng/well; receptor.Fc 1 μg/ml
Method: The interactions of polysaccharides with receptor.Fc fusion proteins was further investigated by performing an enzyme-linked immunoassay, which was based on immobilizing GLPS-F3 through both hydrophilic and hydrophobic forces onto microtiter plates (polysytrene). In this format, the number of different receptor.Fc fusions for profiling was increased in comparison to Example 7. To optimize the quantity of GLPS-F3 for immobilization, various amounts (3-1000 ng/well, diluted in 100 mM Tris buffer, pH9.5) of biotinylated-GLPS-F3 (Biotin-GLPS-F3) were coated onto MaxiSorp StarWell microtiter plates (50 μL/well; Nunc). The plates were incubated overnight at 4° C., and then the wells were washed twice with TBST, followed by blocking with 200 μL blocking buffer (2% BSA/TBST) for 1 hour at room temperature. Peroxidase-conjugated avidin (1:5000 dilution, Vector Laboratories) and TMB (tetramethylbenzidine) substrate was then used for detection of immobilized biotinylated GLPS-F3.
The interaction between GLPS-F3 and receptor.Fc was then tested. […] Wells were incubated with 100 μL TMB substrate for 15 min after TBST washing and read at 450 nm in a Fusion plate reader (Perkin Elmer). […]

JEV = assay: ELISA of DVLR1/CLEC5A.Fc interaction with JEV; assay type: binding, Japanese encephamyelitis virus; settings: 1 μg; JEV 5×10^6 PFU
Method: Like with DV, JEV follows a similar virus infection response pattern, which is believed to be the same or similar in all flaviviruses. […] (1 μg), with JEV and DV (5×10^6 PFU), respectively, were determined by ELISA. DV interacts with human DVLR1/CLEC5A (187 amino acid in length) SEQ ID NO: 72, but not the alternatively spliced form sDVLR1/CLEC5A (aa 43-65 is deleted). SEQ ID NO: 73. […] DAP12 in DV-infected macrophages were precipitated by anti-DAP12 mAb, blotted to nitrocellulose paper after fractionation on SDS-PAGE, followed by incubation with antibodies against phosphotyrosine and DAP12, respectively. JEV-induced DAP12 phosphorylation (m.o.i.=5) is inhibited by pLL3.7/DVLR1/CLEC5A. […] JEV-induced TNF-α secretion is inhibited by […] mAb (right). Data are expressed as the mean±s.d. of three independent experiments.

B1: Fc.MDL-1: extracellular domain of human DVLR1/CLEC5A (MDL-1) fused to the Fc portion of human IgG1 (protein)
chain: MNWHMIISGLIVVVLKVVGMTLFLLYFPQIFNKSNDGFTTTRSYGTVSQIFGSSSPSPNGFITTRSYGTVCPKDWEFYQARCFFLSTSESSWNESRDFCKGKGSTLAIVNTPEKLFLQDITDAEKYFIGLIYHREEKRWRWINNSVFNGNVTNQNQNFNCATIGLTKTFDAASCDISYRRICEKNAK
In the case of B1, the “binding to DV pretreated with heat or dithiothreitol” value (Dengue virus [1]) is reported as “abolish”, the “binding to DV pretreated with heat or dithiothreitol” value (Dengue virus [1]; listed as DVLR1/CLEC5A.Fc) is reported as “almost completely inhibited” and the “Ca^++ dependence of binding to Dengue virus” value (Dengue virus [1]; EDTA 10 mM) is reported as “Ca^++ independent; also recorded: no effect”. For the same molecule, the “binding to DV pretreated with PNGaseF” value (Dengue virus [1]) was “substantially reduced”, the “binding to DV pretreated with PNGaseF” value (Dengue virus [1]; listed as DVLR1/CLEC5A.Fc) was “inhibited DVLR1/CLEC5A.Fc interaction significantly” and the “interaction of receptor.Fc with Dengue virus (ELISA)” value (Dengue virus [1]) was “binds; also recorded: interacts”. For the same molecule, the “interaction of receptor.Fc with Dengue virus (ELISA)” value (Dengue virus [1]; listed as DVLR1/CLEC5A.Fc) was “able to capture DV2”, the “immunoprecipitation of Dengue virus (E protein detected)” value (Dengue virus [2]) was “able to immunoprecipitate DV; also recorded: detected” and the “binding ability to GLPS-F3” value [3] was “minimal binding ability”. For the same molecule, the “interaction with JEV (ELISA)” value (JEV) was “not”.
